Article PMC4003248 (The Journal of Cell Biology, 2014)

Tests used:
[1] = target: RILP (Rab7-interacting lysosomal protein) 1-185 (UniProt Q96NA2); assay: GST-RILP 1-185 pull-down from cell lysate; settings: reference: GFP-LIC1 wild type; sites T213
[2] = target: adenovirus serotype 5 hexon capsid subunit (Ad5 (adenovirus serotype 5), UniProt P04133 1-952); assay: pull-down
adenovirus serotype 5 hexon capsid subunit, sequence (P04133 whole entry): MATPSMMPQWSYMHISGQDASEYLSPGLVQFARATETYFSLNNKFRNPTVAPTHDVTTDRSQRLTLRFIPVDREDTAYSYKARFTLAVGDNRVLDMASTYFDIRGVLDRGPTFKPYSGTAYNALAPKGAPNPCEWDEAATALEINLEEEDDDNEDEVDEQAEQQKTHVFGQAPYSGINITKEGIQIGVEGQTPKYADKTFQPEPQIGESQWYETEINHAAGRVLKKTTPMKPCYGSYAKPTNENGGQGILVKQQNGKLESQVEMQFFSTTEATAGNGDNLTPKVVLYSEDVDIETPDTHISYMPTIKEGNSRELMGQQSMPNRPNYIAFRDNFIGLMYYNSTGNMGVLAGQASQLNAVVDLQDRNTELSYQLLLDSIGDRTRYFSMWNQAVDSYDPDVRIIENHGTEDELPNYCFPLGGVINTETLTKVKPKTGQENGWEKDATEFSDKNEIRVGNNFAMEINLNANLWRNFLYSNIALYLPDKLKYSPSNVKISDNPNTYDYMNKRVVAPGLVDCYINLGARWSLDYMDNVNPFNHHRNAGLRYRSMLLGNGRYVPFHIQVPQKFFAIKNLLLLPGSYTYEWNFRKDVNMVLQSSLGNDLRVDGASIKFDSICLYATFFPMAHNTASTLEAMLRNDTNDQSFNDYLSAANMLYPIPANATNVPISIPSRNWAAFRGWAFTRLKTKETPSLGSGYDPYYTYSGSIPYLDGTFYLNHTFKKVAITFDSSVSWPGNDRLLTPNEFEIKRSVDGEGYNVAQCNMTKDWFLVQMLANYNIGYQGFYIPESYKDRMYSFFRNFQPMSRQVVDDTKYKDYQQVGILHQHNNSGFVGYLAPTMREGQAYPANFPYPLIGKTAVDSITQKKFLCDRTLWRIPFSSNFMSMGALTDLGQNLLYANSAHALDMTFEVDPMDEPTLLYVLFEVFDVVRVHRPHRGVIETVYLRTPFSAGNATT

dynein light intermediate chain 1 (LIC1) (from UniProt Q9QXU8) GFP-LIC1-T213A
binding against the reference [1]: stronger

B1: bacterially expressed full-length IC1A phosphorylated with PKA catalytic subunit (natural protein, rat, UniProt Q63100 1-643, looked up)
chain: MSDKSDLKAELERKKQRLAQIREEKKRKEEERKKKEADMQQKKEPVPDDSDLDRKRRETEALLQSIGISPEPPLVQPLHFLTWDTCYFHYLVPTPMSPSSKSVSTPSEAGSQDDLGPLTRTLQWDTDPSVLQLQSDSELGRRLNKLGVSKVTQVDFLPREVVSYSKETQTPLATHQSEEDEEDEEMVEPKVGHDSELENQDKKQETKEAPPRELTEEEKQQILHSEEFLIFFDRTIRVIERALAEDSDIFFDYSGRELEEKDGDVQAGANLSFNRQFYDEHWSKHRVVTCMDWSLQYPELMVASYSNNEDAPHEPDGVALVWNMKFKKTTPEYVFHCQSSVMSVCFARFHPNLVVGGTYSGQIVLWDNRSHRRTPVQRTPLSAAAHTHPVYCVNVVGTQNAHNLITVSTDGKMCSWSLDMLSTPQESMELVYNKSKPVAVTGMAFPTGDVNNFVVGSEEGTVYTACRHGSKAGIGEVFEGHQGPVTGINCHMAVGPIDFSHLFVTSSFDWTVKLWTTKHNKPLYSFEDNADYVYDVMWSPVHPALFACVDGMGRLDLWNLNSDTEVPTASVAIEGAYALNRVRWAQGGKEVAVGDSEGRIWIYDVGELAVPHNDEWTRFARTLVEIRANRADSEEEGAVELAA
modifications: phosphorylated by PKA (the paper names IC1-T59 as the sole PKA site)
binding result [2]: binds

B2: bacterially expressed LIC1-T213D (natural protein, rat, UniProt Q9QXU8 1-523, looked up)
chain: MAAVGRVGSFGSSPPGLASTYASGPLANELASGSGGPAAGDDEDGQNLWSRILREVSTRSRSKLPTGKNVLLLGEDGAGKTSLIRRIQGIEEYKKGRGLEYLYLNVHDEDRDDQTRCNVWILDGDLYHKGLLKFSLDALSLRDTLVMLVVDMSKPWTALDSLQKWASVVREHVDKLKIPPEEMKEMEQKLIRDFQEYVEPGEDFPASPQRRADAAQEDRDDSVVLPLGADTLTHNLGLPVLVVCTKCDAISVLEKEHDYRDEHFDFIQSHIRKFCLQYGAALIYTSVKENKNIDLVYKYIVQKLYGFPYKIPAVVVEKDAVFIPAGWDNDKKIGILHENFQTLKIEDNFEDIITKPPVRKFVHEKEIMAEDDQVFLMKLQSLLAKQPPTAAGRPVDASPRVPGGSPRTPNRSVSSNVASVSPIPAGSKKIDPNMKAGATSEGVLANFFNSLLSKKTGSPGGPGVGGSPGGGAAGASTSLPPSAKKSGQKPVLSDVHAELDRITRKPASVSPTTPPSPTEGEAS
binding result [2]: binds

B3: bacterially expressed full-length LIC1 phosphorylated with PKA catalytic subunit (natural protein, rat, UniProt Q9QXU8 1-523, looked up)
chain: MAAVGRVGSFGSSPPGLASTYASGPLANELASGSGGPAAGDDEDGQNLWSRILREVSTRSRSKLPTGKNVLLLGEDGAGKTSLIRRIQGIEEYKKGRGLEYLYLNVHDEDRDDQTRCNVWILDGDLYHKGLLKFSLDALSLRDTLVMLVVDMSKPWTALDSLQKWASVVREHVDKLKIPPEEMKEMEQKLIRDFQEYVEPGEDFPASPQRRATAAQEDRDDSVVLPLGADTLTHNLGLPVLVVCTKCDAISVLEKEHDYRDEHFDFIQSHIRKFCLQYGAALIYTSVKENKNIDLVYKYIVQKLYGFPYKIPAVVVEKDAVFIPAGWDNDKKIGILHENFQTLKIEDNFEDIITKPPVRKFVHEKEIMAEDDQVFLMKLQSLLAKQPPTAAGRPVDASPRVPGGSPRTPNRSVSSNVASVSPIPAGSKKIDPNMKAGATSEGVLANFFNSLLSKKTGSPGGPGVGGSPGGGAAGASTSLPPSAKKSGQKPVLSDVHAELDRITRKPASVSPTTPPSPTEGEAS
modifications: phosphorylated by PKA; T213 identified as the major PKA site
binding result [2]: binds
